The test has as its target GST–tubulin tails (ending in either Tyr or Glu). Put plainly: pull-down.

B1: E442Q Spastin (enzyme)
chain: ESGAVPKRKDPLTHTSNSLPRSKTVMKTGSAGLSGHHRAPSYSGLSMVSGVKQGSGPAPTTHKGTPKTNRTNKPSTPTTATRKKKDLKNFRNVDSNLANLIMNEIVDNGTAVKFDDIAGQDLAKQALQEIVILPSLRPELFTGLRAPARGLLLFGPPGNGKTMLAKAVAAESNATFFNISAASLTSKYVGEGEKLVRALFAVARELQPSIIFIDQVDSLLCERREGEHDASRRLKTEFLIEFDGVQSAGDDRVLVMGATNRPQELDEAVLRRFIKRVYVSLPNEETRLLLLKNLLCKQGSPLTQKELAQLARMTDGYSGSDLTALAKDAALGPIRELKPEQVKNMSASEMRNIRLSDFTESLKKIKRSVSPQTLEAYIRWNKDFGDTTV
In turn, B1 yielded a percent of the Spastin bound of 25 to 33%.

Values taken from article PMC2064084.
